The text below walks through data of publication PMC5025654.

Assay [1] concerns the target carrier-free recombinant human TGF-β1 (human). Description: in vitro binding, RP-HPLC, TGF-β1 quantified by ALP-inducing activity of HPDL cells; purified amelogenin mixed with CF-hTGF-β1 or rh-latent TGF-β1, fractions from RP-HPLC tested in the ALP-HPDL system; ng per mg of amelogenin calculated from standard CF-hTGF-β1 (0.3 ng mL^-1), after dilution correction; details in the Supplementary Methods.

In assay [2] the target is TGF-β1 of the porcine enamel matrix (porcine (endogenous in porcine enamel)). Description: co-elution on RP-HPLC, TGF-β1 quantified by ALP-inducing activity of HPDL cells; amelogenins as purified from enamel (before the in vitro binding); ng of TGF-β1 per mg of amelogenin calculated from standard CF-hTGF-β1 (0.3 ng mL^-1), after dilution correction; complexes formed in vivo.
TGF-β1 of the porcine enamel matrix (porcine (endogenous in porcine enamel)), sequence (P07200 279-390): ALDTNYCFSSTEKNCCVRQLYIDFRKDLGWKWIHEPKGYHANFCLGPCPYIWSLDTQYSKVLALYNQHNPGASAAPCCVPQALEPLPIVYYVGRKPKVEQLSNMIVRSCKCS

carrier-free recombinant human TGF-β1 (human), sequence (P01137 279-390): as the sequence (P07200 279-390) above

B1: P173 amelogenin (natural protein)
chain: MPLPPHPGHPGYINFSYEVLTPLKWYQNMIRHPYTSYGYEPMGGWLHHQIIPVVSQQTPQSHALQPHHHIPMVPAQQPGIPQQPMMPLPGQHSMTPTQHHQPNLPLPAQQPFQPQPVQPQPHQPLQPQSPMHPIQPLLPQPPLPPMFSMQSLLPDLPLEAWPATDKTKREEVD
With B1, the bound TGF-β1, ng against 1 mg of amelogenin in assay [1] is 1.18 ng. Further, the original TGF-β1, ng against 1 mg of amelogenin in assay [2] was 0.345 ng.
